How the values were obtained:
MC/CAR = assay: IgG binding to multiple myeloma cell line, flow cytometry MFI; set-up: species or system human; details: control FITC-8 IgG MFI subtracted
Protocol: (§1) • ^aApoptosis Induction; determined by percentage of viable cells after 6 hour incubation with any of the human antibodies, crosslinked with Goat anti-Human (gamma) Fc specific antibody; −, viability not affected; +, 95-80%; ++, 79-60%; +++, 59-40% viable cells compared to control (human FITC-8 IgG1). […] The cell line dependent MFI value of control human FITC-8 IgG antibody was subtracted from the MFI of each human antibody.

DOHH-2 = assay: Apoptosis induction by cross-linked IgG (Annexin V/PI); assay type: cell-based, human; details: viable cells after 6 hour incubation, crosslinked, compared to control FITC-8 IgG1
Protocol: (§2) 2×10^5 B lymphoma cells (Raji or Ramos) or Jurkat T cells were incubated with serially diluted and detoxified scFv's in culture medium for 1 h on ice.
(§3) When whole IgGs were used for apoptosis induction, cross-linking reagent was replaced by goat Fab′2 anti-human Fc γ antibody (Jackson ImmunoResearch) with minimal cross-reactivity with non-IgG antibody isotypes (to avoid unspecific cross-linking of endogenous B lymphoma associated surface immunoglobulins) and incubated, as described above, for 6 h.
(§4) Apoptotic cells were, unless otherwise stated, detected by combined staining with Annexin V Alexa Fluor 488 (AV) and Propidium Iodide (PI) (both from Molecular Probes, Invitrogen) and subsequent flow-cytometric analysis, Cells were defined as viable (AV−/PI−), early apoptotic (AV+/PI−) or late apoptotic/necrotic (AV+/PI+). AV and PI signals were recorded in the FL1 and FL2 or FL3 channels (as indicated in the text), respectively, using a FACSCalibur instrument (BD Biosciences).
as §1

NCEB-1 = assay: as above; assay type: cell-based, human; details: viable cells after 6 hour incubation, crosslinked, compared to control FITC-8 IgG1
Protocol: as §2, §3, §4, §1

RL = assay: as above; assay type: cell-based, human; details: viable cells after 6 hour incubation, crosslinked, compared to control FITC-8 IgG1
Protocol: as §2, §3, §4, §1

Rec-1 = assay: as above; assay type: cell-based, human; details: viable cells after 6 hour incubation, crosslinked, compared to control FITC-8 IgG1
Protocol: as §2, §3, §4, §1

Reh/KM-3 = assay: as above; assay type: cell-based, human; details: viable cells after 6 hour incubation, crosslinked, compared to control FITC-8 IgG1
Protocol: as §2, §3, §4, §1

SC-1 = assay: as above; assay type: cell-based, human; details: viable cells after 6 hour incubation, crosslinked, compared to control FITC-8 IgG1
Protocol: as §2, §3, §4, §1

SP-53 = assay: as above; assay type: cell-based, human; details: viable cells after 6 hour incubation, crosslinked, compared to control FITC-8 IgG1
Protocol: as §2, §3, §4, §1

WSU-NHL = assay: as above; assay type: cell-based, human; details: viable cells after 6 hour incubation, crosslinked, compared to control FITC-8 IgG1
Protocol: as §2, §3, §4, §1

ICAM-1 [1] = biological target: T1, ICAM-1 (Homo sapiens, UniProt P05362); assay: Binding to recombinant ICAM-1 (ELISA)
Protocol: FIG. 12C BI-505 binds specifically to ICAM-1. (a) Pre-incubation with recombinant ICAM-1, but not VCAM, blocks BI-505 binding to targeted tumor B cells.
(FIG. 21A) BI-505 IgG1, IgG4 and IgG1 N297Q antibodies were analyzed for binding to recombinant ICAM-1 by ELISA.

ICAM-1 [2] = biological target: T1, ICAM-1; assay: Radioiodinated IgG B11 binding to Ramos cells, Rosenthal-Scatchard analysis; set-up: endogenous in cells; host or cells: Ramos B lymphoma cells
Protocol: Iodination of 1 mg/ml of IgG1 B1 or IgG1 B11 proteins with [^125I] NaI was performed in PBS for 10 min using Iodogen pre-coated iodination tubes (Pierce). Free [^125I] NaI was removed by desalting on PD-10 columns (Amersham Biosciences), yielding specific radioactivities in the range of 1000-1600 cpm per ng protein. [^125I] IgG1 B1 and [^125I] IgG1 B11 was used for determination of antibody affinities.
Radioiodinated IgG B1 or IgG B11 was incubated with B lymphoma cells in DPBS-B-hIgG (DPBS-B containing 0.2 mg/ml human IgG) for 2 h on ice with intermittent mixing. Non-specific binding was determined in the presence of 0.2 mg/ml unlabelled IgG B1 or IgG B11 protein, as appropriate. […]
Cells were loaded on top 40% v/v Ficoll/DPBS-B cushions in individual tubes and were centrifuged at 400×g for 6 min at 4° C. […] Cell pellets and cell supernatants were isolated and analysed separately for ^125I-IgG protein content in a gamma counter, following cutting of the tubes in half.
Antibody affinity constants (Kd values) and epitope numbers per cell were determined from Scatchard plot analysis according to Rosenthal et al. (Anal. Biochem. (1967) 20:525-532); Bylund and Yamamura (Methods in Neurotransmitter Analysed, New York: Raven Press Ltd., 1990); and Marquardt (J. Soc. Indust. Appl. Math. (1963) 11:431-441), as previously described (Brix et al., J. Clin. Invest. (1998) 102:283-293). […]

T1 sequence (P05362 28-532): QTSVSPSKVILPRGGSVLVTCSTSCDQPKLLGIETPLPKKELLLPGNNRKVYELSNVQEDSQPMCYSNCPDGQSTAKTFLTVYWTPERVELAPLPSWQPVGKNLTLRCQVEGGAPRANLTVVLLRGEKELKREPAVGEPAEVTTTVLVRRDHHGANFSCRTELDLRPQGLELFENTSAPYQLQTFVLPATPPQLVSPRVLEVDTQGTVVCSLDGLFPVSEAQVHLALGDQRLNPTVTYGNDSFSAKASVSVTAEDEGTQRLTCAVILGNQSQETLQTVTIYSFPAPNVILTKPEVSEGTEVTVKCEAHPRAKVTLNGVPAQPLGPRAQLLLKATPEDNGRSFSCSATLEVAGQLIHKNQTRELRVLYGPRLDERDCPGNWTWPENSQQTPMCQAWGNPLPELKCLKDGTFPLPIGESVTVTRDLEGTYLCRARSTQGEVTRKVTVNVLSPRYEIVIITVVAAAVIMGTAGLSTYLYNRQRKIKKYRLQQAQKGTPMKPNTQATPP

B1: C11: fully human IgG1 antibody specific for surface IgM; VH and VL sequences of FIG. 11 (SEQ ID NOs. 10 and 12) (antibody, listed as Homo sapiens, V domains shown)
VH: EVQLLESGGGLVQPGGSLRLSCAASGFTFGSYEMNWVRQAPGKGLEWVSVIYSGGSTYYADSVEGRFTISRDNSKNTLYLQMNSLRAEDTAVYYCARDTNPYYYYGMDVWGQGTLVTVSS
VL: QSVLTQPPSASGTPGQRVTISCSGSSSNIGNNAVNWYQQLPGTAPKLLIYRNNQRPSGVPDRFSGSKSGTSASLAISGLRSEDEADYYCQSYDSSLNGQVFGGGTKLTVLG
MC/CAR
  MFI: 0
DOHH-2
  Apoptosis Induction: −
NCEB-1
  Apoptosis Induction: −
RL
  Apoptosis Induction: −
Rec-1
  Apoptosis Induction: −
Reh/KM-3
  Apoptosis Induction: −
SC-1
  Apoptosis Induction: −
SP-53
  Apoptosis Induction: −
WSU-NHL
  Apoptosis Induction: −

B2: B11: fully human IgG1 antibody specific for ICAM-1; VH and VL sequences of FIG. 10 (SEQ ID NOs. 6 and 8) (antibody, listed as Homo sapiens, V domains shown)
VH: EVQLLESGGGLVQPGGSLRLSCAASGFTFSNAWMSWVRQAPGKGLEWVAFIWYDGSNKYYADSVKGRFTISRDNSKNTLYLQMNSLRAEDTAVYYCARYSGWYFDYWGQGTLVTVSS
VL: QSVLTQPPSASGTPGQRVTISCTGSSSNIGAGYDVHWYQQLPGTAPKLLIYDNNNRPSGVPDRFSGSKSGTSASLAISGLRSEDEADYYCQSYDSSLSAWLFGGGTKLTVLG
MC/CAR
  MFI: 120
DOHH-2
  Apoptosis Induction: −
NCEB-1
  Apoptosis Induction: + (95-80%)
RL
  Apoptosis Induction: −
Rec-1
  Apoptosis Induction: −
Reh/KM-3
  Apoptosis Induction: −
SC-1
  Apoptosis Induction: −
SP-53
  Apoptosis Induction: −
WSU-NHL
  Apoptosis Induction: −
ICAM-1 [1]
  binding to recombinant protein: binds dose-dependently
ICAM-1 [2]; Rosenthal-Scatchard plot
  functional binding sites (receptors) per cell: 47,400
ICAM-1 [2]; radioiodinated IgG
  concentration at which saturable specific binding is reached: ~1 nM

From patent US9803013B2, “Biological materials and uses thereof” (BioInvent International AB, priority 2005, dated 2017)
